# Laboratory results: patent US20250186598A1, “RECOMBINANT HUMAN SERUM ALBUMIN-COLLAGEN BINDING DOMAIN FUSION PROTEIN FOR TUMOR-SPECIFIC TARGETING MATRIX, AND USE THEREOF” (Huatong Forturn (China) Co., Ltd., priority 2020, published 2025)
# Test system: cell proliferation
# Test: Recombinant human EGF biological activity assay (cell proliferation method/MTT colorimetric method), Chinese Pharmacopoeia 2015 General Rule 3528
# Format: cell-based
# Experimental: According to the Pharmacopoeia method, the biological activity of the rHSA/CBD-EGF complex was measured at the cellular level [2015 edition of the Chinese Pharmacopoeia Three General Rules 3528: Recombinant human epidermal growth factor biological activity assay (cell proliferation method/MTT colorimetric method)].
substance,measurement,value
rHSA/CBD: human CBD (vWF A3 domain) ligated to C-terminal of HSA through connecting peptide (GGGS)2; SEQ ID NO. 3,Biological specific activity,None
